For assay [1], the target named is T1, human EGFR ECD (Extracellular Domain) (human, UniProt P00533 25-645).
T1 construct: extracellular domain; also called EGFR (HER1); HER1
Briefly: SPR (Biacore T100). An excerpt: (§1) Briefly, for affinity measurements Goat-Anti-Human IgG, JIR 109-005-098 antibodies were immobilized on a CM5 chip via amine coupling for presentation of the antibodies against human ECD-Fc tagged. […] Biacore T100 Evaluation Software version 1.1.1 was used for analysis of sensorgrams and for calculation of affinity data.
(§2) Binding of the generated antibodies to human ANGPT2 and VEGF was also investigated by surface plasmon resonance using a BIACORE T100 instrument (GE Healthcare Biosciences AB, Uppsala, Sweden). Briefly, for affinity measurements goat<hIgG-Fcg> polyclonal antibodies were immobilized on a CM5 or CM4 chip via amine coupling for presentation of the antibodies against human ANGPT2 and VEGF. […] Biacore T100 Evaluation Software version 1.1.1 was used for analysis of sensorgrams and for calculation of affinity data.
Background: Surface plasmon resonance follows binding to a sensor surface in real time, without labels.

In assay [2] the target is T2, human VEGF165/VEGF121-His (human, UniProt P15692-4 27-191, limits assumed).
T2 construct: R&D Systems or in house purified; also called VEGF-A; hVEGF
T2 sequence (P15692 other isoform, or with tags, fused parts or gaps limits assumed): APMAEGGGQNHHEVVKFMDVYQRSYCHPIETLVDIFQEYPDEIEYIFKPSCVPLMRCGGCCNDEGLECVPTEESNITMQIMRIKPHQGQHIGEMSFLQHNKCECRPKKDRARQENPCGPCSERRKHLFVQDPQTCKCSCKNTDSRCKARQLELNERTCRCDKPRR
Kind of assay: SPR (Biacore T100).
Source text: as §1, §2

As a reminder, the Kd is the equilibrium constant for the complex coming apart. What is called koff is the rate constant with which the complex falls apart. Higher therefore signals fast dissociation. The kon is the rate constant with which the complex forms. The low end stands for slow association, the high end for fast association.

B1: trispecific and tetravalent antibody recognizing Angiopoietin-2, VEGF-A, and EGFR according to FIG. 5a (antibody, human IgG1, kappa)
light 1: QPGLTQPPSVSVAPGQTARITCGGNNIGSKSVHWYQQKPGQAPVLVVYDDSDRPSGIPERFSGSNSGNTATLTISRVEAGDEADYYCQVWDSSSDHYVFGTGTKVTVLRTVAAPSVFIFPPSDEQLKSGTASVVCLLNNFYPREAKVQWKVDNALQSGNSQESVTEQDSKDSTYSLSSTLTLSKADYEKHKVYACEVTHQGLSSPVTKSFNRGEC
heavy 1: not shown
light 2: DIQMTQSPSSLSASVGDRVTITCSASQDISNYLNWYQQKPGKAPKVLIYFTSSLHSGVPSRFSGSGSGTDFTLTISSLQPEDFATYYCQQYSTVPWTFGQGTKVEIKSSASTKGPSVFPLAPSSKSTSGGTAALGCLVKDYFPEPVTVSWNSGALTSGVHTFPAVLQSSGLYSLSSVVTVPSSSLGTQTYICNVNHKPSNTKVDKKVEPKSC
heavy 2: not shown
notes: Trispecific, tetravalent: four different chains, each once; CH1/CL (Ckappa) domain exchanged knobs-into-holes antibody; scFvs fused via a (G4S)4 connector; Expressed in HEK293F cells; also called trispecific antibody with disulfide stabilized scFv against EGFR on both heavy chains
In assay [1], B1 returned a Kd of 6 nM, a koff of 0.00023 s⁻¹ and a kon of 47000 M⁻¹ s⁻¹. Moreover, in assay [2], the Kd was less than 0.1 nM, the koff was less than 1e-06 s⁻¹ and the kon was found to be 100000 M⁻¹ s⁻¹.

These data come from patent US20100322935A1 (Hoffmann-La Roche, published 2010).
